Measured values: paper PMC7603314, “Broad-complex transcription factor mediates opposing hormonal regulation of two phylogenetically distant arginine kinase genes in Tribolium castaneum” (Communications Biology, 2020)

B1: TcAK1 (Tribolium castaneum) (protein)
chain: MVDAAVLEKLEAGFKKLEASDSKSLLKKYLTRELFDKLKTKKTSFGSTLLDVIQSGLENHDSGIGIYAPDADSYSVFADLFDPIIEDYHGGFKKTDKHPPKDWGDVNAFGNLDPAGEFVVSTRVRCGRSLEGYPFNPCLTEEQYKEMEQKVSSTLSGLEGELKGTFYPLTGMSKEVQQKLIDDHFLFKEGDRFLQAANACRFWPTGRGIFHNDAKTFLVWCNEEDHLRIISMQMGGDLGQVYRRLVTGVNDIEKRLPFSHSDRFGFLTFCPTNLGTTVRASVHIKVPKLAANKAKLDEVAAKFNLQVRGTRGEHTEAEGGVYDISNKRRMGLTEFDAVKEMYDGISEIIKMEKEL
notes: His-tagged in pQE-30-XA, E. coli M15, Ni-NTA; signature CP(S/T)N(I/L)GT at 270-276
B2: TcAK2 (Tribolium castaneum) (protein)
chain: MAKAKCHNCETKCGKGKINPEVLTKLEDGFRRLATSNSQSLLKKYLTQAVFDKLKSKKTGFGSTLLDCIQSGLENPDSNIGVYAPDPEAYTVFAELFDPIIDEYHGGFKKTDQHPASTWGDLKSIGDVDPDQKYVVSTRIRCGRSLAGYPFNPCLTEAQYKEMEKKVSGTLMSLTGELKGKYYPLTGMSKRDQQQLIDDHFLFKEGDRFLQAANACRFWPTGRGIFHNTKKTFLVWLNEEDHLRIISMQKGGNVGEVYQRLVCAVEEIETKLKFSRSDRFGYLTFCPTNLGTTIRASVHIQVPKLAKDKAKLEAVANQFNLQVRGTRGEHSEAEEGVYDISNRRRLGLTEYDAVKEMHDGILKIIEMESCM
notes: His-tagged in pQE-30-XA, E. coli M15, Ni-NTA; signature CP(S/T)N(I/L)GT at 286-292

Substrate: N=C(N)NCCC[C@H](N)C(=O)O
Assay: purified protein
Type: biochemical, Tribolium castaneum
Settings: forward reaction, 0.9 mM ATP, 20 mM MgCl2, 50 mM Tris-HCl pH 7.5, 30 °C, L-arginine varied 0.2-10 mM

| Protein | Km [µM] | kcat [s⁻¹] | kcat/Km [M⁻¹ s⁻¹] |
| --- | --- | --- | --- |
| B1 | 1500 ± 20 | 172.7 ± 5.8 | 113000 |
| B2 | 3700 ± 40 | 12.7 ± 0.95 | 3500 |
